Data from paper PMC8052441, “Structural insight into the molecular mechanism of p53-mediated mitochondrial apoptosis” (Nature Communications, 2021).

Tests used:
[1] = biological target: T1, p53-DT (human p53 DBD and tetramerization domain, amino acids 92-360) (human, UniProt P04637 92-360); experiment: ITC; p53 protein (100 µM) titrated into 10–30 µM BCL-xL or BCL-2; 25 °C; 50 mM Tris pH 7.0, 40 mM NaCl, 1 mM TCEP; conditions: both partners purified
T1 construct: human p53, DBD and tetramerization domain, amino acids 92-360; Tetramer in solution by gel filtration and cross-linking; also called wild-type p53-DT; not shown: His6, N-terminal, cleaved

[2] = biological target: T2, p53-DBD (human p53 DNA-binding domain, amino acids 92-292) (human, UniProt P04637 92-292); experiment: as above; conditions: both partners purified
T2 construct: Cloned into pMAL-c5x; In the crystal (PDB 6LHD) this stretch stood fused to BCL-xL; the rows of the structure use m1 and m3 for the two halves; also called p53-A; p53-B; source: E. coli BL21 (DE3), purified (amylose, PreScission, Mono S)
T2 sequence (P04637 92-292): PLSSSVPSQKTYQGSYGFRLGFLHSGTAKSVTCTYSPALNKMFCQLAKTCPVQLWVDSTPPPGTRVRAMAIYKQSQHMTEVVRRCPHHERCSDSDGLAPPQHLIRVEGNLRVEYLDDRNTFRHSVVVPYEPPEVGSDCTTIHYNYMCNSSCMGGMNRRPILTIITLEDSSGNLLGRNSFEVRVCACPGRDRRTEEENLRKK

T1 sequence (P04637 92-360): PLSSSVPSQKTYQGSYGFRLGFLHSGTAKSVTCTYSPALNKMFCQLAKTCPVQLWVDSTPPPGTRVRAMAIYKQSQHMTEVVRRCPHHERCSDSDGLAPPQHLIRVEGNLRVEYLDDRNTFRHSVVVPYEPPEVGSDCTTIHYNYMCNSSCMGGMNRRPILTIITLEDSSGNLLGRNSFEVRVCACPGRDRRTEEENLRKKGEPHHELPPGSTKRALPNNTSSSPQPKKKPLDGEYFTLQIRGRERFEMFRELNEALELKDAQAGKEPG

- Kd [1]: 4.1 µM
- Kd [2]: 37.4 µM
B1: BCL-xL (human, lacking the α1-α2 loop 45-84 and the 22 C-terminal residues), His-tagged (domain or fragment, UniProt Q07817-1 1-211, looked up)
chain: MSQSNRELVVDFLSYKLSQKGYSWSQFSDVEENRTEAPEGTESEAVKQALREAGDEFELRYRRAFSDLTSQLHITPGTAYQSFEQVVNELFRDGVNWGRIVAFFSFGGALCVESVDKEMQVLVSRIAAWMATYLNDHLEPWIQENGGWDTFVELYGNNAAAESRKGQERFN
notes: human BCL-xL lacking the disordered α1-α2 loop (amino acids 45-84) and the 22 C-terminal residues (transmembrane region); Cloned into pET-28a; also called BCL-xL-C; BCL-xL-D
